Measurements reported in patent US20250154217A1 (ZONHON BIOPHARMA INSTITUTE, published 2025).
Positions count from the first letter of the chain named. In names and notes the source's numbering stands.

T1: IL-2Rα(CD25) (UniProt P01589 22-213, limits assumed)
T1 construct: also called IL-2α
T1 sequence (looked up): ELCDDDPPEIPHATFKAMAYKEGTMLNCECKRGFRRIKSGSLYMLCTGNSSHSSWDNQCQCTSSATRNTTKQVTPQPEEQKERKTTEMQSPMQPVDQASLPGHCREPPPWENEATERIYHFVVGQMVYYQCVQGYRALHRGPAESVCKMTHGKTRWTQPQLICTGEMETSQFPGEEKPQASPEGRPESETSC

T2: IL-2Rβ(CD122) (UniProt P14784 27-239, limits assumed)
T2 construct: also called IL-2β
T2 sequence (looked up): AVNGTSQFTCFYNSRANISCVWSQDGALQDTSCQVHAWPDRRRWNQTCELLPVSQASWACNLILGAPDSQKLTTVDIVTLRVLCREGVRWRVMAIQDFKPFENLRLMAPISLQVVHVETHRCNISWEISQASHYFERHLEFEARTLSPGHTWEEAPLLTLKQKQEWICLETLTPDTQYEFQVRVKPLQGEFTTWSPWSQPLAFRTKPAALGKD

T3: IL-2Rβ/γ receptor (UniProt P14784 27-239; P31785 23-262, limits assumed)
T3 sequence (looked up) 1: T2 sequence (looked up)
T3 sequence (looked up) 2: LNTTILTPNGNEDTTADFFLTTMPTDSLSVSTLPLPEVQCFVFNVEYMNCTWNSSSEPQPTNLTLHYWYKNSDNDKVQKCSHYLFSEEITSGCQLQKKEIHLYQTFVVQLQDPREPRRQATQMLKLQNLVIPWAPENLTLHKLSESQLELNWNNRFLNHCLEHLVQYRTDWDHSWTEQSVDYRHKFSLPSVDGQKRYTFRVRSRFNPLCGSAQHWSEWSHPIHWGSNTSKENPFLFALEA

B1: IL-2 mutant G438P19 (ligand)
chain: PTSSSTRKTQLQLEHLMSDLQMILNGINNYKNPKLTRMLTFKFYMPWKATELKHLQCLEEELKPLEEVLNLAQSKNFHLRPRDLISNINVIVLELKGSETTFMCEYADETATIVEFLNRWITFSQSSSQH
notes: Printed: lack of the first amino acid A, K8R/L18M/L19S/K48W/A125S, IISTLT from position 128 mutated to SSQH; also called GP19
B2: IL-2 mutant G438 (ligand)
chain: APTSSSTRKTQLQLEHLLLDLQMILNGINNYKNPKLTRMLTFKFYMPWKATELKHLQCLEEELKPLEEVLNLAQSKNFHLRPRDLISNINVIVLELKGSETTFMCEYADETATIVEFLNRWITFAQSIISTLT
B3: IL-2 mutant G438P12 (ligand)
chain: B2 chain with L18M, L19S, W48R
B4: IL-2 mutant G438P2 (ligand)
chain: B2 chain with K35E, K43D
notes: also called GP2
B5: IL-2 mutant G438P10 (ligand)
chain: B2 chain with L18M, L19S, H79E, R81D
notes: also called GP10
B6: IL-2 mutant G438P15 (ligand)
chain: B2 chain with L18M, L19S, R38E, T41E, Y45R, L72F
notes: also called GP15
B7: IL-2 mutant G438P6 (ligand)
chain: B2 chain with F42A, K43D
notes: also called GP6
B8: IL-2 mutant G438P14 (ligand)
chain: B2 chain with L18M, L19S, R38E, T41E
notes: also called GP14
B9: IL-2 mutant G493 (ligand)
chain: B2 chain with K43W, K54W, K64H, K97E
B10: IL-2 mutant G438P17 (ligand)
chain: B2 chain with L18M, L19S, R81D, P82T, R83E, S87D
notes: also called GP17
B11: IL-2 mutant G438P3 (ligand)
chain: B2 chain with G27C, F78C
notes: also called GP3
B12: IL-2 mutant G438P7 (ligand)
chain: B2 chain with R38E, T41E
notes: also called GP7
B13: IL-2 mutant G498 (ligand)
chain: B2 chain with K43W, K54W, K64H, K97F
B14: IL-2 mutant G438P9 (ligand)
chain: B2 chain with L18M, L19S, F42A
notes: also called GP9
B15: IL-2 mutant G438P16 (ligand)
chain: B2 chain with L18M, L19S, R38E, T41E, P82A, S87D
notes: also called GP16
B16: IL-2 mutant G438P1 (ligand)
chain: B2 chain with L18M, L19S
notes: also called GP1
B17: IL-2 mutant G438P8 (ligand)
chain: B2 chain with L72F, R81D
notes: also called GP8
B18: IL-2 mutant G496 (ligand)
chain: B2 chain with K43W, K54W, K64H, K97R

What was measured:
Test in all cases: BLI (Fortebio)
IL-2Rα(CD25) = biological target: T1, IL-2Rα(CD25)
Method: (§1) The affinity between IL-2 mutants and their receptors was detected by Bio-Layer Interferometry (BLI).
(§2) Receptor solution: IL-2Rα(CD25), IL-2Rβ(CD122) and IL-2Rβ/γ receptor samples were diluted to 15-20 μg/mL with 1×Kinetics buffer, mixed and stored in a dark place.
(§3) Samples were added to the sample wells according to the protocol design, and 200 μL of reagent or sample was added to each well.

IL-2Rβ(CD122) = biological target: T2, IL-2Rβ(CD122)
Method: as §1, §2, §3

IL-2Rβ/γ receptor = biological target: T3, IL-2Rβ/γ receptor
Method: as §1, §2, §3

Row | Binder | Kd (IL-2Rα(CD25)) [nM] | Kd (IL-2Rβ(CD122)) [nM] | Kd (IL-2Rβ/γ receptor) [nM] | binding result (IL-2Rα(CD25)) | binding result (IL-2Rβ(CD122))
1 | B1 | 38.6 | 12.9 |  |  | 
2 | B2 | 13.4 | 15.3 |  |  | 
3 | B3 | 8.48 | 7.29 |  |  | 
4 | B4 | 68.9 | 18.3 |  |  | 
5 | B5 | 36.1 | 30.5 |  |  | 
6 | B6 | 170 | 87.1 | 136000 |  | 
7 | B7 | 119 | 52.3 |  |  | 
8 | B8 |  | 42600 | 39.6 | no binding | 
9 | B9 |  |  |  | no binding | no binding
10 | B10 | 94.9 | 61 |  |  | 
11 | B11 | 26.4 | 12.1 |  |  | 
12 | B12 | 178000 | 64.2 | 35.4 |  | 
13 | B13 |  |  |  | no binding | no binding
14 | B14 | 34.7 | 26.4 |  |  | 
15 | B15 | 353 | 142 |  |  | 
16 | B16 | 17.9 | 18.3 |  |  | 
17 | B17 | 131 | 12 | 32.7 |  | 
18 | B18 |  |  |  | no binding | no binding
